Source: patent publication US20250223353A1 (BIOTHEUS, published 2025)
Each block holds one binder with its values, some of them ahead of it.

Assays:
[1] = target: T1, cynomolgus monkey PVRIG-Fc protein (cynomolgus monkey, UniProt Q6DKI7 41-171 (human entry), limits assumed); experiment: BLI (ForteBio), IgG on AHQ sensor, 100 nM PVRIG-Fc in solution, bivalent, 1:1 model
T1 construct: also called cynomolgus PVRIG-Fc protein; not shown: Fc part
T1 chain: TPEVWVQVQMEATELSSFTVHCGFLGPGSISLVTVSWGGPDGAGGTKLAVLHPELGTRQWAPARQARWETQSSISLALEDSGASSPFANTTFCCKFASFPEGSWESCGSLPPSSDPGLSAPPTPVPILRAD
Description: (§1) Biofilm layer optical interference technology (ForteBio) was used to determine the binding and dissociation rate constant (KD) values of the antibodies and their variants or Fab fragments obtained in Example 1 to human, cynomolgus monkey and mouse PVRIG. ForteBio affinity measurement was performed according to existing methods (Este, P et al., High throughput solution-based measurement of antibody-antigen affinity and epitope binning. Mabs, 2013.5 (2): p270-8).
(§2) The antibody-loaded sensor was continued to be loaded in a high concentration of irrelevant intact antibody for 10 min, saturating the Fc-binding site on the AHQ sensor. The saturated sensor was incubated in 100 nM PVRIG-Fc antigens to the plateau phase, and then the sensor was transferred to an analysis buffer and incubated for at least 2 minutes for measuring dissociation rate. The kinetic analysis was performed using a 1:1 binding model.

mouse PVRIG-Fc protein [2] = target: T2, mouse PVRIG-Fc protein (mouse); experiment: as above
T2 construct: not shown: Fc part
T2 chain: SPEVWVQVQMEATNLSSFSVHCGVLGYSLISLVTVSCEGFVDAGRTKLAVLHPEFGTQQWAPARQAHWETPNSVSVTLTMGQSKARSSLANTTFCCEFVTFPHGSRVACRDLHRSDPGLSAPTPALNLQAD
Description: as §1, §2

human PVRIG-his protein = target: T3, human PVRIG-his protein (human, UniProt Q6DKI7 41-171); experiment: BLI (ForteBio), IgG on AHQ sensor, 100 nM PVRIG-his in solution, monovalent, 1:1 model
T3 construct: also called PVRIG-his antigen; human PVRIG protein; not shown: his tag
T3 sequence: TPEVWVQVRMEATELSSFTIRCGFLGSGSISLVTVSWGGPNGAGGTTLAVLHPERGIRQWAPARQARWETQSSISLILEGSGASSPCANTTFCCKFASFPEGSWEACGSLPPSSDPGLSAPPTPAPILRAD
Description: as §1
The antibody-loaded sensor was incubated in 100 nM PVRIG-his antigen to the plateau phase, and then the sensor was transferred to an analysis buffer and incubated for at least 2 minutes for measuring dissociation rate. The kinetic analysis was performed using a 1:1 binding model.

[3] = target: T1, cynomolgus monkey PVRIG-Fc protein; experiment: BLI (ForteBio), PVRIG-Fc on AHQ sensor, 100 nM Fab in solution, monovalent, 1:1 model
Description: as §1
(§3) The antigen-loaded sensor was incubated in 100 nM Fab solution to the plateau phase, and then the sensor was transferred to an analysis buffer and incubated for at least 2 minutes for measuring dissociation rate. The kinetic analysis was performed using a 1:1 binding model.

human PVRIG-Fc protein = target: T4, human PVRIG-Fc protein (human, UniProt Q6DKI7 41-171); experiment: as above
T4 construct: also called PVRIG-Fc antigen (human); not shown: Fc part
T4 sequence: T3 sequence
Description: as §1, §3

mouse PVRIG-Fc protein [4] = target: T2, mouse PVRIG-Fc protein; experiment: BLI (ForteBio), IgG on AHQ sensor, 100 nM PVRIG-Fc in solution, bivalent
[5] = target: T5, cynomolgus PVRIG overexpressed on CHO cells (cynomolgus, UniProt A0A2K5WVV8 1-322); experiment: flow cytometry on CHO-cynoPVRIG cells
T5 construct: whole, on cells; also called CHO-cynoPVRIG cells
T5 sequence: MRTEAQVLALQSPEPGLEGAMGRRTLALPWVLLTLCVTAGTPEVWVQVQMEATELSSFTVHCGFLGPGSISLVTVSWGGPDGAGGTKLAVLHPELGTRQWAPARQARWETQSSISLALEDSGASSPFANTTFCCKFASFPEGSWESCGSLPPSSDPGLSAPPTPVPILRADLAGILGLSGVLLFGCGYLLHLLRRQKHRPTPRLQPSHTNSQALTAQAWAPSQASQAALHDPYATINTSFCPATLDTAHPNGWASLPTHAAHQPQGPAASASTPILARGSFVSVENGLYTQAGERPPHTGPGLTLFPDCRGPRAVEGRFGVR
Description: (§4) The overexpressing cells were expanded and adjusted to an appropriate cell density, and added to a 96-well flow cytometry plate. After centrifugation, the cells were added with a gradiently diluted sample to be tested, and incubated at 4° C. for 30 minutes. The cells were washed twice with PBS, and added with a fluorescent secondary antibody correspondingly diluted to an appropriate concentration, then incubated at 4° C. for 30 minutes, and washed twice with PBS. Cells were resuspended with PBS, and detected on a CytoFlex flow cytometer, and the corresponding MFI was calculated. Graphpad software was used for graphical analysis to obtain EC50 values.

[6] = target: T6, human PVRIG protein with mouse IgG2a Fc tag (human, UniProt Q6DKI7 41-171, limits assumed); experiment: flow cytometry competition: human PVRIG-mouse IgG2a Fc (1 ug/mL) binding to CHO-huCD112 cells
T6 construct: not shown: mouse IgG2a Fc tag
T6 sequence (looked up): T3 sequence
Description: Specifically, CHO cells overexpressing human CD112 (CHO-huCD112 cells) were generated by transfection of the pCHO1.0 vector (purchased from Invitrogen) with cDNA encoding human CD112 cloned into the multiple cloning site (MCS), followed by pressure screening. The CHO-huCD112 cells were expanded and adjusted to a cell density of 2×10^6 cells/mL, added to a 96-well flow plate at 100 μL/well, and centrifuged for later use. The purified monoclonal antibody was gradiently diluted with PBS and the diluted sample was added to a 96-well flow plate at 60 μL/well. […] The above incubated samples were added at 100 μL/well to the 96-well flow plate containing CHO-huCD112 cells, incubated at 4° C. for 30 min and washed twice with PBS. APC-conjugated goat anti-mouse IgG antibody diluted 100-fold with PBS was added at 100 μL/well, incubated at 4° C. for 30 minutes and washed twice with PBS. Cells were resuspended with PBS at 100 μL/well, and detected on a CytoFlex flow cytometer, and the corresponding MFI was calculated.

[7] = target: T7, human PVRIG on the cell surface (human, UniProt Q6DKI7 41-326); experiment: flow cytometry on CHO-huPVRIG cells
T7 construct: whole, on cells; also called CHO-huPVRIG cells; human PVRIG protein overexpressed on the surface of CHO cells
T7 sequence (looked up): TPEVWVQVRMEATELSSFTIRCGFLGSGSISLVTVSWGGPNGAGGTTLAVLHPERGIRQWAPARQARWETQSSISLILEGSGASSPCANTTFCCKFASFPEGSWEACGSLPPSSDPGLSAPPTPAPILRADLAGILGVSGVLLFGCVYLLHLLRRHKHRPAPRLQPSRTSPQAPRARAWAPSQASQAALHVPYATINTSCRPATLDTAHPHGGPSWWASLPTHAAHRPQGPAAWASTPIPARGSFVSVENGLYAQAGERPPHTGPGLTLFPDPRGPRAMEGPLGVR
Description: as §4

[8] = target: Biotin-labeled mouse PVRIG huFc protein (mouse); experiment: competition ELISA: biotin mouse PVRIG huFc (2 ug/mL) binding to coated mouse CD112-his
Description: Specifically, mouse CD112-his protein diluted with 1× coating buffer to a final concentration of 1 μg/mL was added to the ELISA plate at 100 μL/well, covered with the film, and coated overnight at 4° C. The coating solution in the ELISA plate was discarded, and the ELISA plate was washed three times with 1×PBST and was blocked with 5% BSA/PBS at 200 μL/well for 2 hours at room temperature. During the blocking period, the samples to be tested were gradient diluted with 1% BSA/PBS to a final volume of 60 μL/well. […] The above co-incubated samples were discarded, the ELISA plate was washed three times with 1×PBST, and SA-HRP diluted with 1% BSA/PBS was added at 100 μL/well and incubated for 1 hour at room temperature.

B2: ADI-56204 Fab fragment (Fab, V domains shown)
VH: QVQLVQSGAEVKKPGASVKVSCKASGYTFTHYGIYWVRQAPGQGLEWMGHIYAYSGDTDYAQKLQGRVTMTTDTSTSTAYMELRSLRSDDTAVYYCARGSPTYEHFNWFDPWGQGTLVTVSS
VL: DIQMTQSPSSLSASVGDRVTITCQASDDISDYLNWYQQKPGKAPKLLIYDASSLHTGVPSRFSGSGSGTDFTFTISSLQPEDIATYYCQQYGNLPITFGGGTKVEIK
notes: Fab made by papain digestion of the yeast full-length IgG, purified with Kappa Select
Kd [3]: 14.8 nM
Kd (human PVRIG-Fc protein): 0.383 nM

B4: ADI-56145 (antibody, V domains shown)
VH: QVQLVQSGAEVKKPGASVKVSCKASGYTFTSYGISWVRQAPGQGLEWVGWISSYDASTKYSQELQGRVTMTTDTSTSTAYMELRSLRSEDTAVYYCARGSPIYEHFNWFDPWGQGTLVTVSS
VL: EIVLTQSPATLSLSPGERATLSCRASQSVSSYLAWYQQKPGQAPRLLIYDSSNRATGIPARFSGSGSGTDFTLTISSLEPEDFAVYYCQQLSHHPLTFGGGTKVEIK
notes: Full-length IgG secreted by yeast and purified on Protein A; also called anti-PVRIG antibody ADI-56145 (full-length IgG obtained from Adimab)
binding result (mouse PVRIG-Fc protein [4]): no binding (tested: 100 nM)
Kd [1]: 0.623 nM
Kd (human PVRIG-his protein): 2.04 nM

B5: ADI-56145-G1LALA (antibody, human IgG1, kappa, L234A L235A, V domains shown)
VH: B4 VH
VL: EIVLTQSPATLSLSPGERATLSCRASQSVSSYLAWYQQKPGQAPRLLIYDSSNRATGIPARFSGSGSGTDFTLTISSLEPEDFAVYYCQQLSHHPLTFGGGTKVEIKR
EC50 [5]: 37.6 nM
IC50 [6]: 1.36 nM
EC50 [7]: 2.29 nM

B7: ADI-56249 (antibody, V domains shown)
VH: QVQLVQSGAEVKKPGSSVKVSCKASGGTFSTFAISWVRQAPGQGLEWMGDIIPIFGSNYAQKFQGRVTITADESTSTAYMELSSLRSEDTAVYYCARGPLEGKVSPFDIWGQGTMVTVSS
VL: DIVMTQSPLSLPVTPGEPASISCRSSQSLLHSTGYNYLDWYLQKPGQSPQLLIYVGSTRASGVPDRFSGSGSGTDFTLKISRVEAEDVGVYYCMQERQFPITFGGGTKVEIK
notes: Full-length IgG secreted by yeast and purified on Protein A
Kd [1]: 0.244 nM
Kd (mouse PVRIG-Fc protein [2]): 2.62 nM
Kd (human PVRIG-his protein): 0.872 nM

B8: ADI-56249-G1LALA (antibody, human IgG1, kappa, L234A L235A, V domains shown)
VH: B7 VH
VL: DIVMTQSPLSLPVTPGEPASISCRSSQSLLHSTGYNYLDWYLQKPGQSPQLLIYVGSTRASGVPDRFSGSGSGTDFTLKISRVEAEDVGVYYCMQERQFPITFGGGTKVEIKR
EC50 [5]: 0.396 nM
IC50 [6]: 2.07 nM
EC50 [7]: 1.3 nM
IC50 [8]: 3.22 nM

B9: ADI-56249 Fab fragment (Fab, V domains shown)
VH: B7 VH
VL: B7 VL
notes: as for B2
Kd [3]: 21.2 nM
Kd (human PVRIG-Fc protein): 0.263 nM

Continued, values first:

Kd [1]: 0.181 nM
Kd (mouse PVRIG-Fc protein [2]): 1.66 nM
Kd (human PVRIG-his protein): 0.364 nM
B1: ADI-56127 (antibody, V domains shown)
VH: QVQLVQSGAEVKKPGSSVKVSCKASGGTESVDAISWVRQAPGQGLEWMGDIIPFFDTDYAQKFQGRVTITADESTSTAYMELSSLRSEDTAVYYCAREGGTSWTHFFDLWGRGTLVTVSS
VL: not shown
notes: as for B7

binding result (mouse PVRIG-Fc protein [4]): no binding (tested: 100 nM)
Kd [1]: 0.197 nM
Kd (human PVRIG-his protein): 0.425 nM
B3: ADI-56204 (antibody, V domains shown)
VH: B2 VH
VL: B2 VL
notes: as for B7

Kd [3]: 157 nM
Kd (human PVRIG-Fc protein): 0.758 nM
B6: ADI-56145 Fab fragment (Fab, V domains shown)
VH: B4 VH
VL: B4 VL
notes: Fab made by papain digestion of the yeast full-length IgG, purified with Kappa Select; also called Fab of ADI-56145
